For this data set the following is noted: Escherichia coli (strain K12), pH 7.8, 25 °C, Urea, Potassium phosphate 100 mM, transition: 3, whole UniProt chain shown.

“And” between values parts separate entries of the source, which are not always exact repeats. Equal values may be shown once.

This passage reports unfolding free energy and denaturant m value results from FireProtDB (doi:10.1110/ps.8.8.1623).

B1: Tryptophan synthase alpha chain wild type, P0A877 (protein)
chain: MERYESLFAQLKERKEGAFVPFVTLGDPGIEQSLKIIDTLIEAGADALELGIPFSDPLADGPTIQNATLRAFAAGVTPAQCFEMLALIRQKHPTIPIGLLMYANLVFNKGIDEFYAQCEKVGVDSVLVADVPVEESAPFRQAALRHNVAPIFICPPNADDDLLRQIASYGRGYTYLLSRAGVTGAENRAALPLNHLVAKLKEYNAAPPLQGFGISAPDQVKAAIDAGAAGAISGSAIVKIIEQHINEPEKMLAALKVFVQPMKAATRS
For B1, the unfolding free energy (CD) was 6.6 kcal/mol and 4.6 kcal/mol and 4.4 kcal/mol; the unfolding free energy (Fluorescence) was 6 kcal/mol and 4.5 kcal/mol and 4.9 kcal/mol. Moreover, the denaturant m value (Fluorescence) was 2.2 kcal/mol/M and 1.1 kcal/mol/M and 0.83 kcal/mol/M.
